The data set can be described thus: total protein half-life in vivo (active degradation + dilution); higher = more stable protein.
[1] abbreviates: E. coli NCM3722 delta-clpP delta-lon delta-hslV, growth: N-lim chemostat, doubling time 6 h.
[2] abbreviates: E. coli NCM3722 delta-clpP, growth: N-lim chemostat, doubling time 6 h.
The mark [3] stands for this setting: E. coli NCM3722 delta-hslV, growth: N-lim chemostat, doubling time 6 h.
The mark [4] stands for this setting: E. coli NCM3722 delta-lon, growth: N-lim chemostat, doubling time 6 h.
Setting [5] is: E. coli NCM3722 delta-smpB, growth: N-lim chemostat, doubling time 6 h.
Setting [6] is: wild type E. coli NCM3722, growth: C-lim chemostat, doubling time 3 h.
Setting [7] is: wild type E. coli NCM3722, growth: C-lim chemostat, doubling time 6 h.
The mark [8] stands for this setting: wild type E. coli NCM3722, growth: C-lim chemostat, doubling time 12 h.
[9] abbreviates: wild type E. coli NCM3722, growth: N-lim chemostat, doubling time 6 h.
Setting [10] is: wild type E. coli NCM3722, growth: N-lim chemostat, doubling time 12 h.
Setting [11] is: wild type E. coli NCM3722, growth: P-lim chemostat, doubling time 6 h.
Where [12] appears, read: wild type E. coli NCM3722, growth: P-lim chemostat, doubling time 12 h.

± gives the standard deviation of the averaged measurements.

In the case of “MEYQLTLNWPDFLERHWQKRPVVLKRGFNNFIDPISPDELAGLAMESEVDSRLVSHQDGKWQVSHGPFESYDHLGETNWSLLVQAVNHWHEPTAALMRPFRELPDWRIDDLMISFSVPGGGVGPHLDQYDVFIIQGTGRRRWRVGEKLQMKQHCPHPDLLQVDPFEAIIDEELEPGDILYIPPGFPHEGYALENAMNYSVGFRAPNTRELISGFADYVLQRELGGNYYSDPDVPPRAHPADVLPQEMDKLREMMLELINQPEHFKQWFGEFISQSRHELDIAPPEPPYQPDEIYDALKQGEVLVRLGGLRVLRIGDDVYANGEKIDSPHRPALDALASNIALTAENFGDALEDPSFLAMLAALVNSGYWFFEG”, the “total protein half-life in vivo” value under setting [1] was 5 ± 0.51 h; the “total protein half-life in vivo” value under setting [2] was 5.08 ± 0.63 h; the “total protein half-life in vivo” value under setting [3] is 4.45 ± 0.092 h; the “total protein half-life in vivo” value under setting [4] amounted to 4.25 ± 0.14 h; the “total protein half-life in vivo” value under setting [5] stood at 4.63 ± 0.28 h; the “total protein half-life in vivo” value under setting [6] was found to be 3.12 ± 0.54 h. Also, the “total protein half-life in vivo” value turned out to be 5.25 ± 0.26 h under setting [7]; 10.1 ± 1 h under setting [8]; 4.6 ± 0.32 h under setting [9]; 8.11 ± 0.15 h under setting [10]; 6.71 ± 1.1 h under setting [11]; 13 ± 0.99 h under setting [12].

With “MARARGRGRRDLKSEINIVPLLDVLLVLLLIFMATAPIITQSVEVDLPDATESQAVSSNDNPPVIVEVSGIGQYTVVVEKDRLERLPPEQVVAEVSSRFKANPKTVFLIGGAKDVPYDEIIKALNLLHSAGVKSVGLMTQPI [P0ABV6]”, the “total protein half-life in vivo” value under setting [2] amounted to 5.42 ± 0.13 h; the “total protein half-life in vivo” value under setting [3] is 6.44 ± 0.99 h; the “total protein half-life in vivo” value under setting [4] turned out to be 5.7 ± 0.25 h; the “total protein half-life in vivo” value under setting [5] is 5.74 ± 0.59 h; the “total protein half-life in vivo” value under setting [6] stood at 3.106 ± 0.028 h; the “total protein half-life in vivo” value under setting [7] amounted to 5.686 ± 0.01 h. Further, the “total protein half-life in vivo” value was determined as 11.9 ± 0.7 h under setting [8]; 5.73 ± 0.26 h under setting [9]; 12.6 ± 0.73 h under setting [10]; 5.45 ± 0.66 h under setting [11]; 11.81 ± 0.036 h under setting [12].

In the case of “MKPLSSPLQQYWQTVVERLPEPLAEESLSAQAKSVLTFSDFVQDSVIAHPEWLTELESQPPQADEWQHYAAWLQEALCNVSDEAGLMRELRLFRRRIMVRIAWAQTLALVTEESILQQLSYLAETLIVAARDWLYDACCREWGTPCNAQGEAQPLLILGMGKLGGGELNFSSDIDLIFAWPEHGCTQGGRRELDNAQFFTRMGQRLIKVLDQPTQDGFVYRVDMRLRPFGESGPLVLSFAALEDYYQEQGRDWERYAMVKARIMGDSEGVYANELRAMLRPFVFRRYIDFSVIQSLRNMKGMIAREVRRRGLTDNIKLGAGGIREIEFIVQVFQLIRGGREPSLQSRSLLPTLSAIAELHLLSENDAEQLRVAYLFLRRLENLLQSINDEQTQTLPSDELNRARLAWAMDFADWPQLTGALTAHMTNVRRVFNELIGDDESETQEESLSEQWRELWQDALQEDDTTPVLAHLSEDDRKQVLTLIADFRKELDKRTIGPRGRQVLDHLMPHLLSDVCAREDAAVTLSRITALLVGIVTRTTYLELLSEFPAALKHLISLCAASPMIASQLARYPLLLDELLDPNTLYQPTATDAYRDELRQYLLRVPEDDEEQQLEALRQFKQAQLLRIAAADIAGTLPVMKVSDHLTWLAEAMIDAVVQQAWVQMVARYGKPNHLNEREGRGFAVVGYGKLGGWELGYSSDLDLIFLHDCPMDAMTDGEREIDGRQFYLRLAQRIMHLFSTRTSSGILYEVDARLRPSGAAGMLVTSAEAFADYQKNEAWTWEHQALVRARVVYGDPQLTAHFDAVRREIMTLPREGKTLQTEVREMREKMRAHLGNKHRDRFDIKADEGGITDIEFITQYLVLRYAHEKPKLTRWSDNVRILELLAQNDIMEEQEAMALTRAYTTLRDELHHLALQELPGHVSEDCFTAERELVRASWQKWLVEE”, the “total protein half-life in vivo” value by setting is: under setting [1], 4.99 ± 0.16 h; under setting [2], 4.75 ± 0.75 h; under setting [3], 4.215 ± 0.0047 h; under setting [4], 5.2 ± 0.75 h; under setting [5], 4.64 ± 0.27 h; under setting [6], 3.414 ± 0.027 h. For the same sequence, the “total protein half-life in vivo” value is, setting by setting: under setting [7], 6.65 ± 1.2 h; under setting [8], 12.9 ± 0.85 h; under setting [9], 4.22 ± 0.24 h; under setting [10], 7.85 ± 0.1 h; under setting [11], 6.33 ± 0.28 h; under setting [12], 13.3 ± 1.3 h.

Take “MVAPIPAKRGRKPAVATAPATGQVQSLTRGLKLLEWIAESNGSVALTELAQQAGLPNSTTHRLLTTMQQQGFVRQVGELGHWAIGAHAFMVGSSFLQSRNLLAIVHPILRNLMEESGETVNMAVLDQSDHEAIIIDQVQCTHLMRMSAPIGGKLPMHASGAGKAFLAQLSEEQVTKLLHRKGLHAYTHATLVSPVHLKEDLAQTRKRGYSFDDEEHALGLRCLAACIFDEHREPFAAISISGPISRITDDRVTEFGAMVIKAAKEVTLAYGGMR”: the “total protein half-life in vivo” value is, setting by setting: under setting [1], 5.87 ± 0.33 h; under setting [2], 5.93 ± 0.11 h; under setting [3], 5.33 ± 0.38 h; under setting [4], 5.45 ± 0.43 h; under setting [5], 5.348 ± 0.028 h; under setting [6], 2.89 ± 0.17 h. The “total protein half-life in vivo” value runs as follows: under setting [7], 5.43 ± 0.46 h; under setting [8], 9.91 ± 0.97 h; under setting [9], 5.51 ± 0.18 h; under setting [10], 9.96 ± 1.1 h; under setting [11], 4.91 ± 0.12 h; under setting [12], 9.56 ± 0.21 h.

Take “MLTVIAEIRTRPGQHHRQAVLDQFAKIVPTVLKEEGCHGYAPMVDCAAGVSFQSMAPDSIVMIEQWESIAHLEAHLQTPHMKAYSEAVKGDVLEMNIRILQPGI [P0ADU2]”: the “total protein half-life in vivo” value runs as follows: under setting [1], 5.001 ± 0.017 h; under setting [3], 4.57 ± 0.38 h; under setting [4], 5.31 ± 0.5 h; under setting [5], 4.72 ± 0.06 h; under setting [6], 3.14 ± 0.34 h; under setting [7], 5.35 ± 0.099 h. Further, the “total protein half-life in vivo” value amounted to 10.4 ± 0.39 h under setting [8]; 4.36 ± 0.28 h under setting [9]; 7 ± 0.33 h under setting [10]; 5.84 ± 0.12 h under setting [11]; 11.6 ± 0.82 h under setting [12].

Consider “MNSLQILSFVGFTLLVAVITWWKVRKTDTGSQQGYFLAGRSLKAPVIAASLMLTNLSTEQLVGLSGQAYKSGMSVMGWEVTSAVTLIFLALIFLPRYLKRGIATIPDFLEERYDKTTRIIIDFCFLIATGVCFLPIVLYSGALALNSLFHVGESLQISHGAAIWLLVILLGLAGILYAVIGGLRAMAVADSINGIGLVIGGLMVPVFGLIAMGKGSFMQGIEQLTTVHAEKLNSIGGPTDPLPIGAAFTGLILVNTFYWCTNQGIVQRTLASKSLAEGQKGALLTAVLKMLDPLVLVLPGLIAFHLYQDLPKADMAYPTLVNNVLPVPMVGFFGAVLFGAVISTFNGFLNSASTLFSMGIYRRIINQNAEPQQLVTVGRKFGFFIAIVSVLVAPWIANAPQGLYSWMKQLNGIYNVPLVTIIIMGFFFPRIPALAAKVAMGIGIISYITINYLVKFDFHFLYVLACTFCINVVVMLVIGFIKPRATPFTFKDAFAVDMKPWKNVKIASIGILFAMIGVYAGLAEFGGYGTRWLAMISYFIAAVVIVYLIFDSWRHRHDPAVTFTPDGKDSL”, for which the “total protein half-life in vivo” value under setting [1] was found to be 3.19 h.

The values above are taken from the supplement of paper PMC11246515.
